In this test the target is low-density lipoprotein receptor-related protein-1 (LRP-1), endogenous, human cells (human (endogenous in FTC-133)).

Turning to “β1-integrin, endogenous, human cells (from UniProt P05556 21-798) (receptor)”, the biotin-based internalisation of cell surface β1-integrin in FTC-133 cells (10 min at 37°C), decrease with 500 nM RAP against untreated cells came out at 2 fold and the percentage of Rab5a early endosomes positive for β1-integrin in FTC-133 cells (confocal), reduction with 500 nM RAP against control cells came to 25%.
